In PMC12132507 (bioRxiv, 2025):

T1: Eps15IDR (C-terminal intrinsically disordered region of human Eps15, residues 481 to 897) (human, UniProt P42566 481-896)
T1 sequence: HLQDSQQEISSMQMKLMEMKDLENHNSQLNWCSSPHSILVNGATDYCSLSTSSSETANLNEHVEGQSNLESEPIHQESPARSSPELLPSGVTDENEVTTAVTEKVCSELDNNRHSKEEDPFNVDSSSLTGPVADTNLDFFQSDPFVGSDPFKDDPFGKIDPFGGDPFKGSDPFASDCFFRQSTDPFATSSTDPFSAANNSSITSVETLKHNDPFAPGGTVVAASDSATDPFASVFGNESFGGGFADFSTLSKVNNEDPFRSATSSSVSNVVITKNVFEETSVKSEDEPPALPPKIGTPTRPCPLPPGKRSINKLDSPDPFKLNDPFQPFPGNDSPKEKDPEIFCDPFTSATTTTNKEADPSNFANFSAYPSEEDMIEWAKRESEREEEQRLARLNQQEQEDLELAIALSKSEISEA

B1: Eps15(569-671) (domain or fragment)
chain: SGVTDENEVTTAVTEKVCSELDNNRHSKEEDPFNVDSSSLTGPVADTNLDFFQSDPFVGSDPFKDDPFGKIDPFGGDPFKGSDPFASDCFFRQSTDPFATSST
B2: Eps15(648-780) (domain or fragment)
chain: KGSDPFASDCFFRQSTDPFATSSTDPFSAANNSSITSVETLKHNDPFAPGGTVVAASDSATDPFASVFGNESFGGGFADFSTLSKVNNEDPFRSATSSSVSNVVITKNVFEETSVKSEDEPPALPPKIGTPTR
B3: N-terminal domain of the clathrin heavy chain, TD40 (domain or fragment)
chain: MAQILPIRFQEHLQLQNLGINPANIGFSTLTMESDKFICIREKVGEQAQVVIIDMNDPSNPIRRPISADSAIMNPASKVIALKAGKTLQIFNIEMKSKMKAHTMTDDVTFWKWISLNTVALVTDNAVYHWSMEGESQPVKMFDRHSSLAGCQIINYRTDAKQKWLLLTGISAQQNRVVGAMQLYSVDRKVSQPIEGHAASFAQFKMEGNAEESTLFCFAVRGQAGGKLHIIEVGTPPTGNQPFPKKAVDVFFPPEAQNDFPVAMQISEKHDVVFLITKYGYIHLYDLETGTCIYMNRISGETIFVTAPHEATAGIIGVNRKGQVLSVCVEEENIIPYITNVLQNPDLALRMAVRNNLAGAEEL

Assays:
[1] = target: B3; assay: NMR titration
[2] = target: T1, Eps15IDR (C-terminal intrinsically …); assay: NMR titration

Row | Binder | binding result [1] | binding result [2]
1 | B1 | binds | 
2 | B2 | binds | 
3 | B3 |  | binds
